Measured values taken from PMC10303025.

Target: T1, M2-1 transcription antiterminator (Human respiratory syncytial virus, UniProt P04545 1-194)
T1 sequence: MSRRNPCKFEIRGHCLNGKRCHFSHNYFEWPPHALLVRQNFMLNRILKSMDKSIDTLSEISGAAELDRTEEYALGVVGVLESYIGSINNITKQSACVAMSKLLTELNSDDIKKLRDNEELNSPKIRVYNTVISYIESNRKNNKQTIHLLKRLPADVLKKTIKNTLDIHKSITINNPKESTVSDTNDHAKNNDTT
Experiment: not stated (EMSA and fluorescence polarization titrations mentioned); Kd may derive from earlier work [37]
Conditions: protein: recombinant; chain copies: 4; label: 5' 6-FAM; single strand

## AUAAAGUAGUUAAUUAAAAA (ssRNA) [RNARSV20 (SH gene end 20-mer)]
  Kd: 20 nM
